Measured values reported in paper PMC3716610.

Experiments:
Assay in all cases: EMSA
Details in all cases: 25 mM Tris-HCl pH 7.5, 50 mM KCl, 0.5 mM MgCl2, 100 µg/ml BSA, 1 mM DTT, 10% glycerol; 0.1 µM DNA; 37°C, 30 min; 1% agarose gel, ethidium bromide
[1] = tested on: MBP-3B2ct (C-terminal DNMT3B2) (human)
[2] = tested on: MBP-3B2ct (C-terminal DNMT3B2);GST-3B2ct (human;human)
[3] = tested on: MBP-3B2ct (C-terminal DNMT3B2);GST-3B3ct (human;human)
[4] = tested on: MBP-3B3ct (C-terminal DNMT3B3) (human)
[5] = tested on: MBP-3B4ct (C-terminal DNMT3B4) (human)

Question: Which Kd [1] does the source give for 420 bp DNMT3B PWWP fragment here?
Answer: 220 nM

Question: And the Kd [2]?
Answer: 400 nM

Question: What about the Kd [3] of the same substance?
Answer: 1500 nM

Question: And the Kd [4]?
Answer: 160 nM

Question: What about the Kd [5] of the same substance?
Answer: 2420 nM
